In US20260174885A1:

How the values were obtained:
[1] = target: human epidermal growth factor receptor (human EGFR) (human) (UniProt P00533); test: flow cytometry, BD FACS Aria; MCF-7 cells (low EGFR expression) stained with PE-anti hEGFR antibody for 30 minutes on ice
[2] = target: human epidermal growth factor receptor (human EGFR) (human) (UniProt P00533); test: flow cytometry, Beckman Coulter CytoFLEX S; WI-38 cells stained with PE-anti hEGFR antibody for 30 minutes on ice
[3] = target: human epidermal growth factor receptor (human EGFR) (human) (UniProt P00533); test: flow cytometry, BD FACS Aria; WI-38 cells stained with PE-anti hEGFR antibody for 30 minutes on ice
[4] = target: human epidermal growth factor receptor (human EGFR) (human) (UniProt P00533); test: flow cytometry, BD FACS Aria; RencaEGFR M1 H cells (human EGFR on the cell surface) stained with PE-anti hEGFR antibody for 30 minutes on ice
[5] = target: human epidermal growth factor receptor (human EGFR) (human) (UniProt P00533); test: flow cytometry, Beckman Coulter CytoFLEX S; U87MG cells stained with PE-anti hEGFR antibody for 30 minutes on ice

MFI [1]: 2670
MFI [2]: 1100
MFI [3]: 53300
MFI [4]: 834000
MFI [5]: 1020
Substance: PE-anti hEGFR antibody (Biolegend, Cat #352904)
